Laboratory results published in IntAct's records for PubMed 18060821.

B1: MAPK phosphothreonine lyase (Salmonella enteritidis), P0A2N1 (parent)
chain: MPINRPNLNLNIPPLNIVAAYDGAEIPSTNKHLKNNFNSLHNQMRKMPVSHFKEALDVPDYSGMRQSGFFAMSQGFQLNNHGYDVFIHARRESPQSQGKFAGDKFHISVLRDMVPQAFQALSGLLFSEDSPVDKWKVTDMEKVVQQARVSLGAQFTLYIKPDQENSQYSASFLHKTRQFIECLESRLSENGVISGQCPESDVHPENWKYLSYRNELRSGRDGGEMQRQALREEPFYRLMTE

Variants of: B1
Conditions: with mk07_human MAPK7, Q13164
mk07_human MAPK7, Q13164, sequence (Q13164 whole entry, looked up): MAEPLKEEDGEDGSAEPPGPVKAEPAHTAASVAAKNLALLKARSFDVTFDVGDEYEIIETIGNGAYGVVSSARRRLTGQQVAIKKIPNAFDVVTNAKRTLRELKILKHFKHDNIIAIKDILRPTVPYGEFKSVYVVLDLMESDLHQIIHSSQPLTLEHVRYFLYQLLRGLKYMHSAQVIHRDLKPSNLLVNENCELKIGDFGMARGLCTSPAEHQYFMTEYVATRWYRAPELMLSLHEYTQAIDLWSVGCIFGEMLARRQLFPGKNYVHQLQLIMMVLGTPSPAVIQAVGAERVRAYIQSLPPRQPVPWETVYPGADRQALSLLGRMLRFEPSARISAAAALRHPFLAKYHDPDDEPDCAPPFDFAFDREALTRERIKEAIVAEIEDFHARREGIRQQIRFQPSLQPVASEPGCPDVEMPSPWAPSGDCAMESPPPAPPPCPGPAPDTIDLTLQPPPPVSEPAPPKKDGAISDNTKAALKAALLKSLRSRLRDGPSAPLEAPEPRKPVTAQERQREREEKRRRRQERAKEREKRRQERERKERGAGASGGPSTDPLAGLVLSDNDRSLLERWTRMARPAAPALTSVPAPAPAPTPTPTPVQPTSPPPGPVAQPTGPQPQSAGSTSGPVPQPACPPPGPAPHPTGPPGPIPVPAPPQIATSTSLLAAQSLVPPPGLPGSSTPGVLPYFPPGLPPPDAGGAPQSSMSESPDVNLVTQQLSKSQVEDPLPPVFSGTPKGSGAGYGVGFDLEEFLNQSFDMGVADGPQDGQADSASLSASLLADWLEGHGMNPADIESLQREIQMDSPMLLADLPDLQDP

Variant	effect of a mutation on the interaction
MPINRPNLNLNIPPLNIVAAYDGAEIPSTNKHLKNNFNSLHNQMRKMPVSHFKEALDVPDYSGMRQSGFFAMSQGFQLNNHGYDVFIHARRESPQSQGKFAGDKFHISVLRDMVPQAFQALSGLLFSEDSPVDKWAVTDMEKVVQQARVSLGAQFTLYIKPDQENSQYSASFLHKTRQFIECLESRLSENGVISGQCPESDVHPENWKYLSYRNELRSGRDGGEMQRQALREEPFYRLMTE [K136A]	with no effect

Variants of: B1
Conditions: with mk07_human MAPK7, Q13164
Remark: another data set of the same source

Variant	effect of a mutation on the interaction
MPINRPNLNLNIPPLNIVAAYDGAEIPSTNKHLKNNFNSLHNQMRKMPVSHFKEALDVPDYSGMRQSGFFAMSQGFQLNNHGYDVFIHARRESPQSQGKFAGDKFHISVLRDMVPQAFQALSGLLFSEDSPVDKWAVTDMEKVVQQARVSLGAQFTLYIKPDQENSQYSASFLHKTRQFIECLESRLSENGVISGQCPESDVHPENWKYLSYRNELRSGRDGGEMQRQALREEPFYRLMTE [K136A]	causing an interaction
MPINRPNLNLNIPPLNIVAAYDGAEIPSTNKHLKNNFNSLHNQMRKMPVSHFKEALDVPDYSGMRQSGFFAMSQGFQLNNHGYDVFIHARRESPQSQGKFAGDKFAISVLRDMVPQAFQALSGLLFSEDSPVDKWAVTDMEKVVQQARVSLGAQFTLYIKPDQENSQYSASFLHKTRQFIECLESRLSENGVISGQCPESDVHPENWKYLSYRNELRSGRDGGEMQRQALREEPFYRLMTE [H106A;K136A]	disrupting interaction
